# Laboratory results reported in PMC11863771 (Cell Communication and Signaling : CCS, 2025).
# B1: CXCR4-mCit, P61073 1-352 (receptor)
# chain: MEGISIYTSDNYTEEMGSGDYDSMKEPCFREENANFNKIFLPTIYSIIFLTGIVGNGLVILVMGYQKKLRSMTDKYRLHLSVADLLFVITLPFWAVDAVANWYFGNFLCKAVHVIYTVNLYSSVLILAFISLDRYLAIVHATNSQRPRKLLAEKVVYVGVWIPALLLTIPDFIFANVSEADDRYICDRFYPNDLWVVVFQFQHIMVGLILPGIVILSCYCIIISKLSHSKGHQKRKALKTTVILILAFFACWLPYYIGISIDSFILLEIIKQGCEFENTVHKWISITEALAFFHCCLNPILYAFLGAKFKTSAQHALTSVSRGSSLKILSKGKRGGHSSVSTESESSSFHSS
# B2: mCit-tagged S1P1(TM3) (receptor, human)
# chain: MGPTSVPLVKAHRSSVSDYVNYDIIVRHYNYTGKLNISADKENSIKLTSVVFILICCFIILENIFVLLTIWKTKKFHRPMYYFIGNLALSDLLAGVAYTANLLLSGATTYSLSPTVWFLREGSMFVALGASTCSLLAIAIERHLTMIKMRPYDASNNFRLFLLISACWVISLILGGLPIMGWNCISALSSCSTVLPLYHKHYILFCTTVFTLLLLSIVILYCRIYSLVRTRSRRLTFRKNISKASRSSEKSLALLKTVIIVLSVFIACWAPLFILLLLDVGCKVKTCDILFRAEYFLVLAVLNSGTNPIIYTLTNKEMRRAFIRIMSCCKCPSGDSAGKFKRPIIAGMEFSRSKSDNSSHPQKDEGDNPETIMSSGNVNSSS
# notes: S1P1, human, the part before the printed TM3 stretch (KLTPAQ...); TM3 of S1P3, human, put in place of TM3 of S1P1; S1P1, human, the part after the printed TM3 stretch (...KLHNG); TM3 of S1P1 ([residues removed]) replaced with TM3 of S1P3; source: HEK293A, transiently transfected, in cells; not shown: mCitrine (mCit), C-terminal, kept
# B3: mCit-tagged S1P1(TM4) (receptor, human)
# chain: MGPTSVPLVKAHRSSVSDYVNYDIIVRHYNYTGKLNISADKENSIKLTSVVFILICCFIILENIFVLLTIWKTKKFHRPMYYFIGNLALSDLLAGVAYTANLLLSGATTYKLTPAQWFLREGSMFVALSASVFSLLAIAIERYITMLKMKLHNGNKRHRVFLLIGMCWLIAFTLGALPILGWNCLHNLPDCSTVLPLYHKHYILFCTTVFTLLLLSIVILYCRIYSLVRTRSRRLTFRKNISKASRSSEKSLALLKTVIIVLSVFIACWAPLFILLLLDVGCKVKTCDILFRAEYFLVLAVLNSGTNPIIYTLTNKEMRRAFIRIMSCCKCPSGDSAGKFKRPIIAGMEFSRSKSDNSSHPQKDEGDNPETIMSSGNVNSSS
# notes: S1P1, human, the part before the printed TM4 stretch (SNNFRL...); TM4 of S1P3, human, put in place of TM4 of S1P1; S1P1, human, the part after the printed TM4 stretch (...ALSSCS); TM4 of S1P1 ([residues removed]) replaced with TM4 of S1P3; source: HEK293A, transiently transfected, in cells; not shown: mCitrine (mCit), C-terminal, kept
# B4: mCit-tagged S1P3(TM3) (receptor, human)
# chain: MATALPPRLQPVRGNETLREHYQYVGKLAGRLKEASEGSTLTTVLFLVICSFIVLENLMVLIAIWKNNKFHNRMYFFIGNLALCDLLAGIAYKVNILMSGKKTFKLTPAQWFLREGSMFVALSASVFSLLAIAIERYITMLKMKLHNGNKRHRVFLLIGMCWLIAFTLGALPILGWNCLHNLPDCSTILPLYSKKYIAFCISIFTAILVTIVILYARIYFLVKSSSRKVANHNNSERSMALLRTVVIVVSVFIACWSPLFILFLIDVACRVQACPILFKAQWFIVLAVLNSAMNPVIYTLASKEMRRAFFRLVCNCLVRGRGARASPIQPALDPSRSKSSSSNNSSHSPKVKEDLPHTAPSSCIMDKNAALQNGIFCN
# notes: S1P3, human, the part before the printed TM3 stretch (SLSPTV...); TM3 of S1P1, human, put in place of TM3 of S1P3; S1P3, human, the part after the printed TM3 stretch (...RPYDA); TM3 of S1P3 ([residues removed]) replaced with TM3 of S1P1; source: HEK293A, transiently transfected, in cells; not shown: mCitrine (mCit), C-terminal, kept
# B5: mCit-tagged S1P3(TM4) (receptor, human)
# chain: MATALPPRLQPVRGNETLREHYQYVGKLAGRLKEASEGSTLTTVLFLVICSFIVLENLMVLIAIWKNNKFHNRMYFFIGNLALCDLLAGIAYKVNILMSGKKTFSLSPTVWFLREGSMFVALGASTCSLLAIAIERHLTMIKMRPYDASNNFRLFLLISACWVISLILGGLPIMGWNCISALSSCSTILPLYSKKYIAFCISIFTAILVTIVILYARIYFLVKSSSRKVANHNNSERSMALLRTVVIVVSVFIACWSPLFILFLIDVACRVQACPILFKAQWFIVLAVLNSAMNPVIYTLASKEMRRAFFRLVCNCLVRGRGARASPIQPALDPSRSKSSSSNNSSHSPKVKEDLPHTAPSSCIMDKNAALQNGIFCN
# notes: S1P3, human, the part before the printed TM4 stretch (NKRHRV...); TM4 of S1P1, human, put in place of TM4 of S1P3; S1P3, human, the part after the printed TM4 stretch (...NLPDCS); TM4 of S1P3 ([residues removed]) replaced with TM4 of S1P1; source: HEK293A, transiently transfected, in cells; not shown: mCitrine (mCit), C-terminal, kept
# What was measured:
# [1] = molecular target: T1, CXCR4-Rluc8 (human), P61073; test: FRET or BRET; quantitative BRET saturation in HEK293A cells, CXCR4-Rluc8 and CXCR4-mCit, without S1P1, with CXCL12 (10 nM); conditions: remark: other sources report otherwise
# T1 chain: B1 chain
# [2] = molecular target: T1, CXCR4-Rluc8 (human), P61073; test: FRET or BRET; quantitative BRET saturation in HEK293A cells, CXCR4-Rluc8 and CXCR4-mCit, with S1P1 coexpressed, vehicle; conditions: remark: other sources report otherwise
# [3] = molecular target: T1, CXCR4-Rluc8 (human), P61073; test: FRET or BRET; quantitative BRET saturation in HEK293A cells, CXCR4-Rluc8 and CXCR4-mCit, with S1P1 coexpressed, with CXCL12 (10 nM); conditions: remark: other sources report otherwise
# [4] = molecular target: T1, CXCR4-Rluc8 (human), P61073; test: FRET or BRET; quantitative BRET saturation in HEK293A cells: fixed amount of Rluc8-tagged donor, increasing amounts of mCit-tagged acceptor, coelenterazine h 5 µM; no ligand, no further receptor coexpressed; conditions: remark: other sources report otherwise
# [5] = molecular target: T1, CXCR4-Rluc8 (human), P61073; test: as above; conditions: remark: other sources report otherwise
# [6] = molecular target: T2, CXCR4-Rluc8 (human, UniProt P61073 1-352); test: as above; conditions: partners not purified
# T2 construct: C-X-C chemokine receptor type 4 (CXCR4), human cDNA from the Missouri S&T cDNA Resource Center; source: HEK293A, transiently transfected, in cells; not shown: Rluc8, C-terminal, kept
binder,measurement,setting,value
B1,BRET50,[1],9.53
same,BRET50,[2],22.8
same,BRET50,[3],20.1
same,BRET50,[4],15.6
same,BRET50,[5],2.74
B2,BRET50,[6],7.24 ± 0.501
B3,BRET50,[6],7.19 ± 0.559
B4,BRET50,[6],6.97 ± 0.473
B5,BRET50,[6],12.7 ± 0.687
